Assay results as given in the supplement of paper PMC9112550, “Optimization of the antimicrobial peptide Bac7 by deep mutational scanning” (BMC Biology, 2022).

Test system: Escherichia coli TOP10
Assay: shrunken log2 fold change of peptide-encoding DNA abundance (4.5 h post-induction vs induction); higher = less antimicrobial activity (less host growth inhibition)
Conditions: time post-induction: 4.5 h; library: site-saturation at positions 5, 18, 19, 20
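Note: peptides expressed intracellularly from a pBAD plasmid library in pooled LB shake-flask culture, induced with 0.3% L-arabinose, DNA abundance read by NGS, three biological replicates, DESeq2 with apeglm shrinkage.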

Sequence | shrunken log2 fold change
RRIRARPPRLPRPRPRPDLGPRP | 0.438
RRIRARPPRLPRPRPRPDLLPRP | 0.0805
RRIRARPPRLPRPRPRPDMFPRP | 0.0745
RRIRARPPRLPRPRPRPDMLPRP | -0.0619
RRIRARPPRLPRPRPRPDNHPRP | -0.0167
RRIRARPPRLPRPRPRPDNQPRP | 0.0635
RRIRARPPRLPRPRPRPDPTPRP | 0.447
RRIRARPPRLPRPRPRPDQVPRP | 0.359
RRIRARPPRLPRPRPRPDQYPRP | 0.151
RRIRARPPRLPRPRPRPDREPRP | -0.0167
RRIRARPPRLPRPRPRPDSHPRP | -0.779
RRIRARPPRLPRPRPRPDSYPRP | -0.111
RRIRARPPRLPRPRPRPDTGPRP | -0.0932
RRIRARPPRLPRPRPRPDTHPRP | 0.0877
RRIRARPPRLPRPRPRPDVDPRP | 1.1
RRIRARPPRLPRPRPRPDWWPRP | 0.608
RRIRARPPRLPRPRPRPDYFPRP | -0.0428
RRIRARPPRLPRPRPRPDYRPRP | 0.0573
RRIRARPPRLPRPRPRPECCPRP | 0.996
RRIRARPPRLPRPRPRPECTPRP | 1.05
RRIRARPPRLPRPRPRPEELPRP | 0.499
RRIRARPPRLPRPRPRPEFLPRP | 0.465
RRIRARPPRLPRPRPRPEFQPRP | 0.666
RRIRARPPRLPRPRPRPEGRPRP | 2.11
RRIRARPPRLPRPRPRPEGVPRP | 1.1
RRIRARPPRLPRPRPRPEHFPRP | 0.126
RRIRARPPRLPRPRPRPEHGPRP | 0.0464
RRIRARPPRLPRPRPRPEHSPRP | 0.244

Sequence | shrunken log2 fold change
RRIRARPPRLPRPRPRPEIGPRP | 0.675
RRIRARPPRLPRPRPRPEKWPRP | 0.244
RRIRARPPRLPRPRPRPELIPRP | 0.606
RRIRARPPRLPRPRPRPELMPRP | 1.19
RRIRARPPRLPRPRPRPEMAPRP | 0.739
RRIRARPPRLPRPRPRPEPCPRP | 0.126
RRIRARPPRLPRPRPRPEPYPRP | 0.34
RRIRARPPRLPRPRPRPESPPRP | 0.145
RRIRARPPRLPRPRPRPETSPRP | 0.912
RRIRARPPRLPRPRPRPEVKPRP | 0.123
RRIRARPPRLPRPRPRPEVTPRP | 1.28
RRIRARPPRLPRPRPRPEWGPRP | 1.06
RRIRARPPRLPRPRPRPEYGPRP | 0.11
RRIRARPPRLPRPRPRPFDKPRP | -0.107
RRIRARPPRLPRPRPRPFENPRP | 0.166
RRIRARPPRLPRPRPRPFEVPRP | 0.455
RRIRARPPRLPRPRPRPFFLPRP | -0.0057
RRIRARPPRLPRPRPRPFFRPRP | 0.126
RRIRARPPRLPRPRPRPFHEPRP | -0.166
RRIRARPPRLPRPRPRPFHFPRP | -0.25
RRIRARPPRLPRPRPRPFHPPRP | -0.178
RRIRARPPRLPRPRPRPFLCPRP | 0.0599
RRIRARPPRLPRPRPRPFPNPRP | -0.221
RRIRARPPRLPRPRPRPFPVPRP | -0.0583
RRIRARPPRLPRPRPRPFQWPRP | -0.0629
RRIRARPPRLPRPRPRPFSMPRP | -0.215
RRIRARPPRLPRPRPRPFSTPRP | -0.572
